Source: publication PMC13086497, “Heat shock factor regulation of antimicrobial peptides expression suggests a conserved defense mechanism induced by febrile temperature in arthropods”

T1: LvHSF1 (rLvHSF1-GST) (Litopenaeus vannamei, UniProt X2D760 1-632)
T1 sequence: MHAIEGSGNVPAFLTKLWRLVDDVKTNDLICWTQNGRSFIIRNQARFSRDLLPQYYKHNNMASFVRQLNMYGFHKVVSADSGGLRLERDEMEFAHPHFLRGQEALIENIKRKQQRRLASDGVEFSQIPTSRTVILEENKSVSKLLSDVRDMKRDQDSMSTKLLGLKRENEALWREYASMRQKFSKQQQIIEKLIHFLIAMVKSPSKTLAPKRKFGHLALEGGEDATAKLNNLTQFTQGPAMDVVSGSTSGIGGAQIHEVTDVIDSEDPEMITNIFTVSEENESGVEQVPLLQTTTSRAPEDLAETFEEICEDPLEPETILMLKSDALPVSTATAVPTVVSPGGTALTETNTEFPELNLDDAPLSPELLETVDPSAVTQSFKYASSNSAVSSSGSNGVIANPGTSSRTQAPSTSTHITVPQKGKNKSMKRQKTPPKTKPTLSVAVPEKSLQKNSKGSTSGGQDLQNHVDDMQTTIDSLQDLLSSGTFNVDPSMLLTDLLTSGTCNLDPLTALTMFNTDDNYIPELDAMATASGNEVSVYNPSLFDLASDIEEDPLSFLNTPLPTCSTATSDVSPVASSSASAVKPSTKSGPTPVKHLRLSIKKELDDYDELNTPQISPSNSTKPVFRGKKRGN

B1: SWD-Probe2 (dsDNA)
DNA 1: GTTGGGATTTCCATGATGACTTTTCGAGGAATTAGTGGCTGCGTG
DNA 2: CACGCAGCCACTAATTCCTCGAAAAGTCATCATGGAAATCCCAAC
B2: SWD-Probe1 (dsDNA)
DNA 1: TACCACTAGGACTTTCTATAGAACCATCTTTGCTTCACTATAACA
DNA 2: TGTTATAGTGAAGCAAAGATGGTTCTATAGAAAGTCCTAGTGGTA
B3: Mut-SWD-Probe1 (dsDNA)
DNA 1: TACCACTAGGACTTTCCAAACGGCCAGGTTTGCTTCACTATAACA
DNA 2: TGTTATAGTGAAGCAAACCTGGCCGTTTGGAAAGTCCTAGTGGTA

Biological target: T1, LvHSF1 (rLvHSF1-GST)
Assay: EMSA; EMSA: 10 ug recombinant protein, 20 fmol biotin probe, LightShift Chemiluminescent EMSA kit, 5% native PAGE; buffer, pH and temperature not stated
Conditions: blunt
[1] = chain copies: 3, label: biotin (labeled probe)

| Binder | binding result [1] | binding result (chain copies: 3, label: biotin) |
| --- | --- | --- |
| B1 | binds |  |
| B2 | binds |  |
| B3 |  | no binding |
